Data as given in patent US20230406951A1 (Pfizer, published 2023).
Where “and” joins values, the source holds several entries; their conditions need not be identical. Equal values may be shown once.

Key:
[1] = molecular target: T1, cynomolgus monkey TNFR2 (cynomolgus monkey, UniProt P20333 23-461 (human entry)); test: cell-based or functional assay
T1 chain: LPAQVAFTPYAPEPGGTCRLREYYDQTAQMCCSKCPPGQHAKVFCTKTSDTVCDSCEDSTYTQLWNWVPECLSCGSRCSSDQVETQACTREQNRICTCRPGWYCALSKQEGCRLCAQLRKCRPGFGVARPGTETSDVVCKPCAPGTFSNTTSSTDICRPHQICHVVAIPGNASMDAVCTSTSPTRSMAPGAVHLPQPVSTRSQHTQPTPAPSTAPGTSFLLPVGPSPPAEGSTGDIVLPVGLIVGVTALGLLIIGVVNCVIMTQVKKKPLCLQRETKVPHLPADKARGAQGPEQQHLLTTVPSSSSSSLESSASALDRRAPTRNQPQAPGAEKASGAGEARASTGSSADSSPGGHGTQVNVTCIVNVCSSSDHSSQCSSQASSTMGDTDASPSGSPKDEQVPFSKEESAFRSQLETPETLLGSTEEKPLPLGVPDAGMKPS

[2] = molecular target: T2, human TNFR2 (human, UniProt P20333 23-461); test: cell-based or functional assay
T2 sequence: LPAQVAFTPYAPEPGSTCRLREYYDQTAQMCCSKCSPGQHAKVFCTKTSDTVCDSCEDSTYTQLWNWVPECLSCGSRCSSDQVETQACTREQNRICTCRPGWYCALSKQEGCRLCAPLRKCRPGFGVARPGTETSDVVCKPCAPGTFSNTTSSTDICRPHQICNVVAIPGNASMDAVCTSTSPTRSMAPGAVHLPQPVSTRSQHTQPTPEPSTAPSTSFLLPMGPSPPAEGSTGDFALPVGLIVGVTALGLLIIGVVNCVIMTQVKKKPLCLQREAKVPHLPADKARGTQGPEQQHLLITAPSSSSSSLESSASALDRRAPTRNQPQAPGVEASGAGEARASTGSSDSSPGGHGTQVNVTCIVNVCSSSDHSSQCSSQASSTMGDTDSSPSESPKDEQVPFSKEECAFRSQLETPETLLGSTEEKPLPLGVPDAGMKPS

[3] = molecular target: T2, human TNFR2; test: cell-based or functional assay; remark: listed apart in the source
[4] = molecular target: T1, cynomolgus monkey TNFR2; test: cell-based or functional assay
[5] = molecular target: T2, human TNFR2; test: cell-based or functional assay; remark: listed apart in the source
[6] = molecular target: T2, human TNFR2; test: binding to human TNFR2 CHO cells
[7] = molecular target: T3, biotinylated human TNFR2 (human, UniProt P20333 23-257, biotinylated); test: SPR (BIAcore), biotinylated TNFR2 captured on streptavidin chip, antibody as analyte (apparent affinity)
T3 construct: Soluble biotinylated protein captured on a streptavidin chip for SPR; also called HuTNFR2
T3 sequence: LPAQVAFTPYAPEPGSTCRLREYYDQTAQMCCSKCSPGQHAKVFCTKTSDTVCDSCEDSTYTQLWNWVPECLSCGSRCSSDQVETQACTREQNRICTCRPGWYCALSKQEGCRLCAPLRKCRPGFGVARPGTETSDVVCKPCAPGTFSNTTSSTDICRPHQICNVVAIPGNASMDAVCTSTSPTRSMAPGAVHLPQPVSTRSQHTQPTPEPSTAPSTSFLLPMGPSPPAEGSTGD
Protocol: (§1) Increased avidity was confirmed by Surface Plasmon Resonance (SPR) using a BIAcore. Briefly, biotinylated human- or cyno-TNFR2 was captured on the surface of a streptavidin chip for 60 seconds at a flow rate of […]. […] The dissociation phase was then initiated with running buffer (HBS-EP+) injected for 600 seconds at […]. Data were analyzed using the Biacore Evaluation Software.

[8] = molecular target: T4, biotinylated cyno TNFR2 (cynomolgus monkey, UniProt P20333 23-257 (human entry), limits assumed, biotinylated); test: as above
T4 construct: Soluble biotinylated protein captured on a streptavidin chip for SPR; also called CyTNFR2
T4 chain: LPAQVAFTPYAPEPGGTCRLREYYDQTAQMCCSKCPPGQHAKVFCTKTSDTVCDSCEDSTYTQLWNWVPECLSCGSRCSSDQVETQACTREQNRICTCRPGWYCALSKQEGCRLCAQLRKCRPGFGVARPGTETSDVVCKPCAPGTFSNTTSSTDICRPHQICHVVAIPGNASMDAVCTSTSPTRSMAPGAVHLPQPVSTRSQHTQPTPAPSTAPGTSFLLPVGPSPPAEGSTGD
Protocol: as §1

[9] = molecular target: T3, biotinylated human TNFR2; test: SPR (BIAcore), biotinylated TNFR2 captured on streptavidin chip, TetraFab as analyte (apparent affinity)
Protocol: as §1

[10] = molecular target: T4, biotinylated cyno TNFR2; test: as above
Protocol: as §1

[11] = molecular target: T1, cynomolgus monkey TNFR2; test: cell-based or functional assay
[12] = molecular target: T2, human TNFR2; test: cell-based or functional assay; remark: listed apart in the source
[13] = molecular target: T1, cynomolgus monkey TNFR2; test: cell-based or functional assay
[14] = molecular target: T2, human TNFR2; test: cell-based or functional assay; remark: listed apart in the source
[15] = molecular target: T3, biotinylated human TNFR2; test: SPR (BIAcore), apparent affinity
Protocol: as §1

[16] = molecular target: T1, cynomolgus monkey TNFR2; test: cell-based or functional assay
[17] = molecular target: T2, human TNFR2; test: cell-based or functional assay; remark: listed apart in the source

B1: GBT-TNFR2-1765 (antibody, human IgG2, kappa, V domains shown)
VH: QVQLVQSGAEVKKPGASVKVSCKVSGFSFPSSGVDWVRQAPGQGLEWLGVTWGVGSTHYNQKFQGRVTITKDTSKSTVYMELSSLRSEDTAVYYCASGEWDEGFVYWGQGTLVTVSS
VL: DIQLTQSPSFLSASVGDRVTITCKASQNVGTAVAWYQQKPGKAPKLLIYAASTLQSGVPSRFSGSGSGTEFTLTISSLQPEDFATYYCQQYSSYPLTFGGGTKVEIKR
EC50 CyPBMC (CD25+/Ki67+ of CD4+ cells) [1]: 13.6 µg/mL
EC50 HuPBMC (ICAM-1 up-regulation) [2]: 1.31 µg/mL
EC50 Jurkat [3]: 1.01 µg/mL
EC50 (CyPBMC) [4]: 13.6 nM
EC50 (HuPBMC) [5]: 1.31 nM
Jurkat EC50 [5]: 1.01 µg/mL
EC50 [6]: 1.21 nM
Kd [7]: 0.32 nM
koff [7]: 0.00136 s⁻¹
kon [7]: 4.2e+06 M⁻¹ s⁻¹
Kd [8]: 2.39 nM
koff [8]: 0.00977 s⁻¹
kon [8]: 4.09e+06 M⁻¹ s⁻¹

B2: TetraFab 2053 (antibody, human IgG1, kappa)
heavy: QVQLVQSGAEVKKPGASVKVSCKVSGFSFPSSGVDWVRQAPGQGLEWLGVTWGVGSTHYNQKFQGRVTITKDTSKSTVYMELSSLRSEDTAVYYCASGEWDEGFVYWGQGTLVTVSSASTKGPSVFPLAPSSKSTSGGTAALGCLVKDYFPEPVTVSWNSGALTSGVHTFPAVLQSSGLYSLSSVVTVPSSSLGTQTYICNVNHKPSNTKVDKKVEPKSCGGGGSQVQLVQSGAEVKKPGASVKVSCKVSGFSFPSSGVDWVRQAPGQGLEWLGVTWGVGSTHYNQKFQGRVTITKDTSKSTVYMELSSLRSEDTAVYYCASGEWDEGFVYWGQGTLVTVSSASTKGPSVFPLAPSSKSTSGGTAALGCLVKDYFPEPVTVSWNSGALTSGVHTFPAVLQSSGLYSLSSVVTVPSSSLGTQTYICNVNHKPSNTKVDKKVEPKSCDKTHTCPPCPAPEAAGAPSVFLFPPKPKDTLMISRTPEVTCVVVDVSHEDPEVKFNWYVDGVEVHNAKTKPREEQYNSTYRVVSVLTVLHQDWLNGKEYKCKVSNKALPAPIEKTISKAKGQPREPQVYTLPPSREEMTKNQVSLTCLVKGFYPSDIAVEWESNGQPENNYKTTPPVLDSDGSFFLYSKLTVDKSRWQQGNVFSCSVMHEALHNHYTQKSLSLSPGK
light: DIQLTQSPSFLSASVGDRVTITCKASQNVGTAVAWYQQKPGKAPKLLIYAASTLQSGVPSRFSGSGSGTEFTLTISSLQPEDFATYYCQQYSSYPLTFGGGTKVEIKRTVAAPSVFIFPPSDEQLKSGVTASVVCLLNNFYPREAKVQWKVDNALQSGNSQESVTEQDSKDSTYSLSSTLTLSKADYEKHKVYACEVTHQGLSSPVTKSFNRGEC
notes: also called TF2053
Kd [9]: 0.06 nM
koff [9]: 0.000473 s⁻¹
kon [9]: 8.1e+06 M⁻¹ s⁻¹
Kd [10]: 0.61 nM
koff [10]: 0.00706 s⁻¹
kon [10]: 1.15e+07 M⁻¹ s⁻¹
EC50 CyPBMC (CD25+/Ki67+ of CD4+ cells) [1]: 5.95 µg/mL
EC50 HuPBMC (ICAM-1 up-regulation) [2]: 0.116 µg/mL
loss of potency in cyno versus human, IKBa degradation [11]: > 5 fold
mean EC50 for IKBa in cyno expanded Tregs [11]: 0.145 nM
mean EC50 for upregulation of OX-40 in cyno splenic Treg [11]: 0.958 nM
fold improvement of EC50 for up-regulation of ICAM-1 against 854 and 1765 [12]: 10 fold
fold improvement of Jurkat EC50 compared to both 854 and 1765 [12]: > 10 fold
mean EC50 for IKBa in human expanded Tregs [12]: 0.026 nM
mean EC50 for OX-40 upregulation on human splenic Treg [12]: 0.033 nM
EC50 Jurkat [3]: 0.037 µg/mL
Cyno EC50, IKBa degradation in expanded Tregs, donor Cyno3 [13]: 2.25 nM
Cyno EC50, IKBa degradation in expanded Tregs, donor Cyno 16-477 [13]: 0.118 nM
Cyno EC50, IKBa degradation in expanded Tregs, donor Cyno 16-873 [13]: 0.0538 nM
Cyno EC50, IKBa degradation in expanded Tregs, donor Cyno 18-7469 [13]: 0.4 nM
Cyno EC50, IKBa degradation in expanded Tregs, donor Cyno 18-7473 [13]: 0.155 nM
Human EC50, IKBa degradation in expanded Tregs, donor Human D23 [14]: 0.0478 nM
Human EC50, IKBa degradation in expanded Tregs, donor Human D24 [14]: 0.00575 nM
Human EC50, IKBa degradation in expanded Tregs, donor Human D28 [14]: 0.02 nM and 0.0179 nM
Human EC50, IKBa degradation in expanded Tregs, donor Human D32 [14]: 0.0373 nM
fold improvement of KD compared to its IgG counterparts 854 or 1765 [15]: 5 fold
Cyno EC50, OX-40 up-regulation on splenic Treg, donor 17-5215 [16]: 1.75 nM
Cyno EC50, OX-40 up-regulation on splenic Treg, donor #31 [16]: 0.799 nM
Cyno EC50, OX-40 up-regulation on splenic Treg, donor #34 [16]: 0.905 nM
Cyno EC50, OX-40 up-regulation on splenic Treg, donor TA1 [16]: 0.642 nM
Cyno EC50, OX-40 up-regulation on splenic Treg, donor TA2 [16]: 0.692 nM
Human EC50, OX-40 up-regulation on splenic Treg, donor BioIVT #BRH1515663 [17]: 0.018 nM
Human EC50, OX-40 up-regulation on splenic Treg, donor ZenBio #072518 [17]: 0.047 nM
